Test results from US20210395344A1 (TWIST BIOSCIENCE, published 2021).
Like-named read-outs stand apart in the source and are kept apart here.

Experiments:
[1] = biological target: T1, SARS-CoV-2 Spike Glycoprotein S1 (subunit 1) (SARS-CoV-2, UniProt P0DTC2 16-685); assay: screening phage ELISA, mean
T1 construct: also called S1 Monomer; SARS-CoV-2 S1

[2] = biological target: T1, SARS-CoV-2 Spike Glycoprotein S1 …; assay: screening phage ELISA, mean; remark: listed apart in the source
[3] = biological target: T1, SARS-CoV-2 Spike Glycoprotein S1 …; assay: column Inhibitor IC50 (assay not explained)
[4] = biological target: T1, SARS-CoV-2 Spike Glycoprotein S1 …; assay: column DC/S1 (format not explained)
S1-Fc [5] = biological target: T2, S1-Fc (SARS-CoV-2, UniProt P0DTC2 16-685); assay: phage ELISA
[6] = biological target: T3, COVID S1 RBM Fc fusion (Antigen 2) (SARS-CoV-2, UniProt P0DTC2 437-508); assay: phage ELISA
T3 construct: domain: RBM

S1-Fc [7] = biological target: T2, S1-Fc; assay: phage ELISA; remark: listed apart in the source
[8] = biological target: T3, COVID S1 RBM Fc fusion (Antigen 2); assay: phage ELISA; remark: listed apart in the source
[9] = biological target: T4, SARS-CoV-2 S1 (antigen of the Carterra SPR kinetics) (SARS-CoV-2, UniProt P0DTC2 16-685); assay: Carterra SPR
[10] = biological target: T4, SARS-CoV-2 S1 (antigen of the Carterra …); assay: Carterra SPR; remark: listed apart in the source
[11] = biological target: T1, SARS-CoV-2 Spike Glycoprotein S1 …; assay: ELISA binding titration

Binder | ELISA (Avg) [1] | ELISA (Avg) [2] | IC50 [3] [nM] | EC50 [11] [nM] | further results
1-52 (antibody, V domains shown) VH: EVQLLESGGGLVQPGGSLRLSCAASGFTFSNYAMSWVRQAPGKGLEWVSAISGSAGSTYYADSVKGRFTISRDNSKNTLYLQMNSLRAEDTAVYYCARVRQGLRRTWYYFDYWGQGTLVTVSS VL: QSALTQPASVSGSPGQSITISCTGTSSDVGSSNLVSWYQQHPGKAPKLMIYEGSKRPSGVSNRFSGSKSGNTASLTISGLQAEDEADYYCCSYAGSLYVFGGGTKLTVL | 3.5 | 3.5 | 740 |  | 
1-8 (antibody, V domains shown) VH: EVQLLESGGGLVQPGGSLRLSCAASGFTFSSYDMSWVRQAPGKGLEWVSVISGSGGSTYYADSVKGRFTISRDNSKNTLYLQMNSLRAEDTAVYYCAKGPLVGWYFDLWGQGTLVTVSS VL: QSALTQPASVSGSPGQSITISCTGTSNDVGSYNLVSWYQQHPGKAPKLMIYEGSKRPSGVSNRFSGSKSGNTASLTISGLQAEDEADYYCCSYAGSRYVVFGGGTKLTVL | 19.3 | 19.3 | 97.3 |  | 
1-30 (antibody, V domains shown) VH: EVQLLESGGGLVQPGGSLRLSCAASGFTFSSYAMTWVRQAPGKGLEWVSAISGSGGSTFYADSVKGRFTISRDNSKNTLYLQMNSLRAEDTAVYYCTRPPYGDYGDYWGQGTLVTVSS VL: QSALTQPASVSGSPGQSITISCTGTSRDVGSYNLVSWYQQHPGKAPKLMIYEGTKRPSGVSNRFSGSKSGNTASLTISGLQAEDEADYYCCSYAGSRTPVVFGGGTKLTVL | 29.5 | 29.5 | 25.3 |  | Kd [4]: 4.7 nM
1-32 (antibody, V domains shown, also called variant 1-32) VH: EVQLLESGGGLVQPGGSLRLSCAASGFTFSSYAMYWVRQAPGKGLEWVSAISGSGGSTFYADSVKGRFTISRDNSKNTLYLQMNSLRAEDTAVYYCTRPPYGDYGDYWGQGTLVTVSS VL: QSALTQPASVSGSPGQSITISCTGTSSDVGGYNLVSWYQQHPGKAPKLMIYEGNKRPSGVSNRFSGSKSGNTASLTISGLQAEDEADYYCCSYAGSSTFPVVFGGGTKLTVL |  |  |  |  | ELISA fold over background (S1-Fc [5]): 4 fold over background; ELISA fold over background [6]: 1.1 fold over background; ELISA fold over background (S1-Fc [7]): 4 fold over background; ELISA fold over background [8]: 1.1 fold over background; koff [9]: 0.317 s⁻¹; kon [9]: 5.49e+06 M⁻¹ s⁻¹; Kd [10]: 57.8 nM; koff [10]: 0.317 s⁻¹; kon [10]: 5.49e+06 M⁻¹ s⁻¹
1-10 (antibody, V domains shown) VH: EVQLLESGGGLVQPGGSLRLSCAASGFTFSSYDMSWVRQAPGKGLEWVSVISGSGGSTYYADSVKGRFTISRDNSKNTLYLQMNSLRAEDTAVYYCAKGPLVGWYFDLWGQGTLVTVSS VL: QSALTQPASVSGSPGQSITISCTGTSSNVGSYNLVSWYQQHPGKAPKLMIYEGTKRPSGVSNRFSGSKSGNTASLTISGLQAEDEADYYCCSYAGSSSFVVFGGGTKLTVL | 16.9 | 16.9 | 17.7 |  | 
1-26 (antibody, V domains shown) VH: EVQLLESGGGLVQPGGSLRLSCAASGFTFSSYAISWVRQAPGKGLEWVSAISGSGYSTYYADSVKGRFTISRDNSKNTLYLQMNSLRAEDTAVYYCARGAPDSSGYYFQGEVYFDYWGQGTLVTVSS VL: QSALTQPASVSGSPGQSITISCTGTSSDVGGYNLVSWYQQHPGKAPKLMIYEGTKRPSGVSNRFSGSKSGNTASLTISGLQAEDEADYYCCSFVRSSAHVVFGGGTKLTVL | 19.5 | 19.5 | 8 | 48.5 | 
1-7 (antibody, V domains shown) VH: EVQLLESGGGLVQPGGSLRLSCAASGFTFSSYDMSWVRQAPGKGLEWVSVISGSGGSTYYADSVKGRFTISRDNSKNTLYLQMNSLRAEDTAVYYCAKGPLVGWYFDLWGQGTLVTVSS VL: QSALTQPASVSGSPGQSITISCTGTSSDFGSYNLVSWYQQHPGKAPKLMIYEGNKRPSGVSNRFSGSKSGNTASLTISGLQAEDEADYYCCSYAGSSTFVVFGGGTKLTVL | 22.5 | 22.5 |  | 95.7 | 
1-9 (antibody, V domains shown) VH: EVQLLESGGGLVQPGGSLRLSCAASGFTFSSYDMSWVRQAPGKGLEWVSVISGSGGSTYYADSVKGRFTISRDNSKNTLYLQMNSLRAEDTAVYYCAKGPLVGWYFDLWGQGTLVTVSS VL: QSALTQPASVSGSPGQSITISCTGTSSDVGDYNLVSWYQQHPGKAPKLMIYEGSNRPSGVSNRFSGSKSGNTASLTISGLQAEDEADYYCCSYAGSSSFVVFGGGTKLTVL | 18.5 | 18.5 | 282 |  | 
1-5 (antibody, V domains shown) VH: EVQLLESGGGLVQPGGSLRLSCAASGFTFSSQAMSWVRQAPGKGLEWVSAISGSGGGTYYADSVKGRFTISRDNSKNTLYLQMNSLRAEDTAVYYCAKDRRFGEFDPWGQGTLVTVSS VL: QSALTQPASVSGSPGQSITISCTGTSSGVGSYNLVSWYQQHPGKAPKLMIYEASKRPSGVSNRFSGSKSGNTASLTISGLQAEDEADYYCCSYAGSYTFAVFGGGTKLTVL | 20.6 | 20.6 |  | 7.83 | 
1-21 (antibody, V domains shown) VH: EVQLLESGGGLVQPGGSLRLSCAASGFTFSSYTMSWVRQAPGKGLEWVSIISGSGGSTYYADSVKGRFTISRDNSKNTLYLQMNSLRAEDTAVYYCAREGYRDYLWYFDLWGQGTLVTVSS VL: QSALTQPASVSGSPGQSITISCTGTSSDVGSNNLVSWYQQHPGKAPKLMIYEGNKRPSGVSNRFSGSKSGNTASLTISGLQAEDEADYYCCSYAGSVVFGGGTKLTVL | 47.6 | 47.6 | 6.7 |  | 
1-24 (antibody, V domains shown) VH: EVQLLESGGGLVQPGGSLRLSCAASGFTFSSYAMNWVRQAPGKGLEWVSIISGSGGSTYYADSVKGRFTISRDNSKNTLYLQMNSLRAEDTAVYYCAREGYRDYLWYFDLWGQGTLVTVSS VL: QSALTQPASVSGSPGQSITISCTGTSSDVGYYNLVSWYQQHPGKAPKLMIYEGNKRPSGVSNRFSGSKSGNTASLTISGLQAEDEADYYCCSYAGGSVVFGGGTKLTVL | 32.9 | 32.9 |  |  | Kd [4]: 2040 nM
1-22 (antibody, V domains shown) VH: EVQLLESGGGLVQPGGSLRLSCAASGFTFSSYAMNWVRQAPGKGLEWVSIISGSGGSTYYADSVKGRFTISRDNSKNTLYLQMNSLRAEDTAVYYCAREGYRDYLWYFDLWGQGTLVTVSS VL: QSALTQPASVSGSPGQSITISCTGTSTDVGSYNLVSWYQQHPGKAPKLMIYEGSQRPSGVSNRFSGSKSGNTASLTISGLQAEDEADYYCCSYAGSSTVFGGGTKLTVL | 40.6 | 40.6 | 73.2 | 6.55 | 
1-51 (antibody, V domains shown) VH: EVQLLESGGGLVQPGGSLRLSCAASGFTFSSYAMSWVRQAPGKGLEWVSVISGSGGSTYYADSVKGRFTISRDNSKNTLYLQMNSLRAEDTAVYYCAREGYRDYLWYFDLWGQGTLVTVSS VL: QSALTQPASVSGSPGQSITISCTGTSSDVGSYDLVSWYQQHPGKAPKLMIYEGNKRPSGVSNRFSGSKSGNTASLTISGLQAEDEADYYCCSYAGSSVVFGGGTKLTVL | 7.1 | 7.1 |  | 98.2 | 
